Experimental data published in the RNAGym collection of RNA variant scans (doi:10.1073/pnas.2313332121).
Fewer inactive variants are shown than the library holds.

B1: TPR 5TU (parent)
chain: GGAUCUUCUCGAUCUAACAAAAAAGACAAAUCUGCCACAAAGCUUGAGAGCAUCUUCGGAUGCAGAGGCGGCAGCCUUCGGUGGCGCGAUAGCGCCAACGUUCUCAACUAUGACACGCAAAACGCGUGCUCCGUUGAAUGGAGUUUAUCAUG

Variants of: B1
Assay: polymerase ribozyme fitness, log enrichment relative to wild type (log ratio); higher = more active; in vitro selection for triplet polymerase activity
Summary of the method: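 Input and output libraries were sequenced on Illumina after a single in vitro selection round, run in triplicate on PCR-built, transcribed mutant libraries of each subunit of a heterodimeric triplet polymerase ribozyme. Selection annealed libraries to a biotinylated primer, the partner subunit and triplets, incubated them frozen at −7 °C, then gel-excised extended constructs for streptavidin-bead capture and RT-PCR. Genotypes with ≥10 input reads and ≥1 read per output were kept. Fitness is the logarithm, taken in base 2, of genotype enrichment divided by wild-type enrichment, using inverse-variance-weighted replicate averages.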

Row | Variant | polymerase ribozyme fitness (log ratio)
1 | G50A U56A C87U G124A | -2.44
2 | A52U G68A U82G G133U A137C A142C | ≤ -4.2
3 | C10G C54U U55A C79G C93U A98G C116G A122U | ≤ -4.2
4 | C51A C95U A119G | -1.34
5 | A52C C54U | -1.87
6 | A60U C85A | -3.04
7 | C51A G81A A147G U148G | ≤ -4.2
8 | C85U G92U U139G | -1.29
9 | G83C C96U C108G G143U | ≤ -4.2
10 | A26C U44G A91U U145C | ≤ -4.2
11 | G92C U135G | -3.12
12 | A26G A39G G42C A49G U55A U56A U130A U135G | ≤ -4.2
13 | U33A G50A U53A C85G C96G A97U C114G U139A | ≤ -4.2
14 | A110G C149G | -3.83
15 | A30U G50C | ≤ -4.2
16 | A47U C76U A119C U139G | -2.8
17 | A3U U15G A19C A39C U44G U55A C57U A60G C63A G84A A110U A120C | ≤ -4.2
18 | A12U G50A U53A C87U G136A | ≤ -4.2
19 | U56A G58C U61A G86U C87A G100U | ≤ -4.2
20 | C27G G83A | -4.12
21 | C72G C105U | -3.5
22 | G50C C95A | -2.7
23 | U56A G83U | -0.976
24 | A23G C51G U53A A60G G84A U104G C116U A121C | ≤ -4.2

Row | Variant | polymerase ribozyme fitness (log ratio)
25 | C99U U144A | -1.02
26 | A23U U33A U45A G46A C96U | -4.15
27 | C75A A89U G143C | ≤ -4.2
28 | A3U A142C | -1.59
29 | U33G G65A G70C C108U | ≤ -4.2
30 | U53G G58A | -1.53
31 | U31C C35U A41G C54U G86C | -2.75
32 | A40G C54A G68A G92A | ≤ -4.2
33 | A40U G92A A119C A120C U148G | ≤ -4.2
34 | A28U G70U G83C C131U | ≤ -4.2
35 | A41U C54U C96A | -2.16
36 | C103A U109G | -3.53
37 | A41C C57U U82C G141A | -1.09
38 | A16G G46U U55A C85A C105A | -4.14
39 | A12C U13C A26C C27G G70A C96G | ≤ -4.2
40 | U6C A19U A60C C87A A91U U134G | ≤ -4.2
41 | C93U U146A | -1.46
42 | A3G C8G A22U A26G G46C C96U | ≤ -4.2
43 | A21U G84A G141A | 0.99
44 | C14G G48A A119G | -3.43
45 | A3G A47G U61A G94U C99A C108U U135G | ≤ -4.2
46 | A23C C43U A47C C57G C87A A121G G143C U144G | ≤ -4.2
47 | U44A U56A U61A A97U | ≤ -4.2
48 | U77A G86A C116G A121C | ≤ -4.2

Row | Variant | polymerase ribozyme fitness (log ratio)
49 | A47C C96A | -0.697
50 | C96U G124A A147U | 0.911
51 | A37C C38U U53A A91G | -3.98
52 | C76U U139G | -0.649
53 | A19G G84A | -1.52
54 | A19U G46A G58C A97U U134A | ≤ -4.2
55 | A19G G50C C75G C85G C103A U135C | ≤ -4.2
56 | A30G G46C G50U C57U C118G | ≤ -4.2
57 | C125G | -0.473
58 | G92U C105U A107U A110C A138C | ≤ -4.2
59 | U6A G50C C57A G83U C87A G94A | ≤ -4.2
60 | A24G A47G G48A C75U G86A | ≤ -4.2
61 | A20C A24G A40C C69A C75G C87U G88C U102C G124A G133C U135C A147C | ≤ -4.2
62 | G81A U144C | -1.41
63 | C51G C87U C114G | ≤ -4.2
64 | A19G G83C C87U U101G | ≤ -4.2
65 | G126U C149U | -1.96
66 | A22U C96U C118U | -0.15
67 | A17C C36U A52C G80U G84C A107U U144C | ≤ -4.2
68 | U15C U145G | 0.506
69 | C69A C93U U102G A113U G117U U146A C149U | ≤ -4.2
70 | A30U G92U | -3.52
71 | C32U U82C | -1.74
72 | G59C C85G | -1.64

Row | Variant | polymerase ribozyme fitness (log ratio)
73 | A52C C93G A122G | -3.18
74 | A97C C103G C114G | -3.86
75 | C8A U53A A73U G74U G92U A142U G143A | ≤ -4.2
76 | C63G C72U C93U | -0.337
77 | C76U C87U U102C | -1.82
78 | A52C C57U G86U C99U C118U C125G G143A U151A | ≤ -4.2
79 | C18U G86A G140A | ≤ -4.2
80 | G92U C96A U127C U145C A147C | ≤ -4.2
81 | A30C A52G A106C U146C | ≤ -4.2
82 | U6G A21C C75U U144A | -0.201
83 | C8U A30U C32U A64G C76A A97G A107U C108U A110G C116A | -4.12
84 | G46A A52C U61G | -0.687
85 | G88U C95G | -3.65
86 | C95U U104G | -2.11
87 | U6G C79A G84C G152A | ≤ -4.2
88 | C75G C96A | -3.52
89 | C8A A20G G68C C85A G126A | ≤ -4.2
90 | C8G A147C | ≤ -4.2
91 | G59C A60U | 0.153
92 | G11C A20G G34U A137U | ≤ -4.2
93 | C54A U56A | -1.31
94 | C8A C14G C27U G46A C76A U109G C131U G143A | ≤ -4.2
95 | A73U C95U G140A A142C | ≤ -4.2
96 | U101A A115U G141A | -2.17

Row | Variant | polymerase ribozyme fitness (log ratio)
97 | A24U G84U | -2.26
98 | A41C G59A G86U | -2.6
99 | U55A C85A G100A A121G C131A | ≤ -4.2
100 | A39U A60U U146A | -3.58
101 | G34C G50U C54A G94U C99U | ≤ -4.2
102 | C35U G94U | -0.729
103 | C8G G59C G86C G117U | ≤ -4.2
104 | U13C U148C | -2.48
105 | U9A A64G A89U G92A C131G | ≤ -4.2
106 | C18G A19U G62C C85U C116A | -1.81
107 | A22U C43U A47C A91C C108U A115U A121C | ≤ -4.2
108 | C36A A39G G59U C85A A98U A107C | ≤ -4.2
109 | U15C U53A A73G C76U G92C | -1.85
110 | U77A G92U C99G | -4.06
111 | C36A G48A C93U A113U C118G U144G A150U | ≤ -4.2
112 | C5U C18U C76G C105U U148A | ≤ -4.2
113 | A23G U90A C93U C105U C125U | ≤ -4.2
114 | G80C C93G | -4.2
115 | G11U A12G U15A G58C G94U U151G | ≤ -4.2
116 | A39C C149U | -2.97
117 | C35U A97G U134G U144G | -2.34
118 | A19U A21C C54U U134A | ≤ -4.2
119 | C125U U146G | -1.15
120 | G50C C87U A122U | -3.11

Row | Variant | polymerase ribozyme fitness (log ratio)
121 | C38U A40G | -2.26
122 | A41C C76U G84U | -2.96
123 | C54A G70A C95U A120G | -3.62
124 | A21G C57A G74A C76G C87U G124U | ≤ -4.2
125 | C95G A98G | -1.57
126 | U6G A23U C51A U55G A115U | ≤ -4.2
127 | G59A A64U C85A G92A U144C | ≤ -4.2
128 | A49C G50U U78G C85U A97G U102G A107U A142C | ≤ -4.2
129 | U6A A17U G65A G83A G84U C87A G100A G141A | ≤ -4.2
130 | A40G C85G A89G | ≤ -4.2
131 | A37C C43U G68U A73C C79G C95U U148G | ≤ -4.2
132 | C5U C38U C85G U101C | -1.38
133 | A20C U56A | -0.524
134 | A12U G34C G62C A73U C96U A107G C116G A147G | ≤ -4.2
135 | A23C G58A G62A C87A C116G U135G | ≤ -4.2
136 | G59A C76G G80C C116G C118G | ≤ -4.2
137 | A21U C38A G50C U55G C69A C76A G80A U90G | ≤ -4.2
138 | U56C C85G U135C A142U G152A | ≤ -4.2
139 | A17U A113U | -1.99
140 | A37C U127G | -3.83
141 | G25U C63G G88C C108U | -3.94
142 | A22C C27U C54U C85G A91U G112A A119U A147C A150C | ≤ -4.2
143 | A16G A97G U144G | -0.0952
144 | A12U C32G G100A C129A U144G | ≤ -4.2

Row | Variant | polymerase ribozyme fitness (log ratio)
145 | U13G C69A | ≤ -4.2
146 | A41C A91G C118G | -3.64
147 | G50U G84A U148G | ≤ -4.2
148 | G46U C85A | -2.02
149 | U56A C123U | 0.128
150 | A22G C57U G70A A91C | ≤ -4.2
151 | G70C G80A A91U U104C A120U | ≤ -4.2
152 | A16G A110G | -3.77
153 | A39C G50C G59C A97U C129A C149U | ≤ -4.2
154 | G50C C87A C93A C99U A137U A138C | ≤ -4.2
155 | C5G G50U G81C G92C G143A | -2.74
156 | C14G A107G G136U | ≤ -4.2
157 | U7C C8G A30C C85G U134A | ≤ -4.2
158 | A37C A52U C132U | -4.13
159 | A17U U55A G84C C95G U148A | -3.23
160 | A39G C87A C108U U135C | ≤ -4.2
161 | A47C U56A U78A U90G | ≤ -4.2
162 | A20U G50C G58U C79G G84U U90G A107G C108G | ≤ -4.2
163 | A19C A30G C87U G128C G136U | ≤ -4.2
164 | C54A C96U | -1.43
165 | A40G U56A G59U G68A C95A U135A A150U | ≤ -4.2
166 | U53G C79A C87A U102G | ≤ -4.2
167 | U9G U44G G50A U82C C95U U139G | ≤ -4.2
